This is an account of results in US20190374608A1 (BOARD OF TRUSTEES OF THE UNIVERSITY OF ILLINOIS, published 2019).

Where no end group is shown, it is not given here. (CH2CH2O)27 = 27 units of polyethylene glycol linked to the C-terminal Asp, ending in NH2

Assay [1] has as its target T1, human CCR3 in membrane preparations, 13C-reductively methylated (CCR3-K-di13CH3) (human, UniProt P51677 1-355, lysines reductively methylated with 13C (K-di13CH3)).
T1 construct: also called CCR3 membrane preps; C-C chemokine receptor 3
T1 sequence (looked up): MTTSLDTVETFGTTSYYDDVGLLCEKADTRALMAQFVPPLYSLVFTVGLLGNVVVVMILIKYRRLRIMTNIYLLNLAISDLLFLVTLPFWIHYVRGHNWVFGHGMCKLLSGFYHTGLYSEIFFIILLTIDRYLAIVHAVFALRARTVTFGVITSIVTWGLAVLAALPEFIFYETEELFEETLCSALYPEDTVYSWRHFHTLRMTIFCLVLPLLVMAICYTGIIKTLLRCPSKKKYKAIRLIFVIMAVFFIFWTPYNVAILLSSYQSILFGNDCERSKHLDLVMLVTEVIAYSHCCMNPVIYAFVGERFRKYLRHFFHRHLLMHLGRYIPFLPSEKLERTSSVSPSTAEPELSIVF
Description: NMR, 13C HSQC of 13C-reductively methylated CCR3 membrane preps (0.25 mg/ml) with 1 µM CCL11. The protocol:
FIG. 6A to FIG. 6E show NMR evaluation of the binding of R3-2-1 and CCL11/eotaxin-1 to CCR3 membrane preparations. ¹³C HSQC spectra of ¹³C-reductively methylated CCR3 membrane preps (0.25 mg/ml) were recorded with 1 μM CCL11 and 10 μM R321. FIG. 6A, reductively methylated CCR3 (CCR3-K-di¹³CH3) (gray) and reductively methylated CCR3 with CCL11 (black); FIG. 6B, reductively methylated CCR3 (CCR3-K-di¹³CH3) (gray) and reductively methylated CCR3 with R321 (black); FIG. 6C, reductively methylated CCR3 (CCR3-K-di¹³CH3) (gray) and reductively methylated CCR3 with CCL11 and R321 (black); FIG. 6D, reductively methylated CCR3 with CCL11 (gray) and reductively methylated CCR3 with CCL11 and R321 (black); and FIG. 6E, reductively methylated CCR3 with R321 (gray) and reductively methylated CCR3 with CCL11 and R321 (black) show chemical shift changes indicative of binding. Black arrows indicate the differences in chemical shifts.

Assay [2] deals with T2, human CCR3 on cells (AML14.3D10-CCR3 cells, blood eosinophils, 4DE4-CCR3 cells) (human, UniProt P51677 1-355).
T2 sequence (looked up): T1 sequence (looked up)
Description: cell-based or functional assay.

B1: recombinant human CCL11 (ligand)
chain: not shown
notes: also called eotaxin; eotaxin-1
For the molecule B1, in assay [1], the binding result is listed as “binds”.

Regarding LLFLVTLPFWIHYVRGHNWVFGHDDD-{(CH2CH2O)27-NH2} [R3-2-1 peptide (CCR3 second transmembrane helix peptide analog, PEG27, C-terminal amide)], in assay [2], the “IC50 of inhibition of CCL11/Eotaxin-1 (12 nM)-induced chemotaxis, AML14.3D10-CCR3 cells” value worked out at 210 nM; the “IC50 of inhibition of CCL11/Eotaxin-1 (12 nM)-induced chemotaxis, blood eosinophils” value is 110 nM; the “IC50 of inhibition of CCL24/Eotaxin-2 (20 nM)-induced chemotaxis, AML14.3D10-CCR3 cells” value was determined as 140 nM; the “IC50 of inhibition of CCL24/Eotaxin-2 (20 nM)-induced chemotaxis, blood eosinophils” value worked out at 80 nM. Also, in assay [2], the “IC50 of inhibition of CCL26/Eotaxin-3 (100 nM)-induced chemotaxis, AML14.3D10-CCR3 cells” value came to 100 nM and the “IC50 of inhibition of CCL26/Eotaxin-3 (100 nM)-induced chemotaxis, blood eosinophils” value was 160 nM.
